T1: Arc1p dN (Saccharomyces cerevisiae, UniProt P46672 132-376, del1-131)
T1 sequence: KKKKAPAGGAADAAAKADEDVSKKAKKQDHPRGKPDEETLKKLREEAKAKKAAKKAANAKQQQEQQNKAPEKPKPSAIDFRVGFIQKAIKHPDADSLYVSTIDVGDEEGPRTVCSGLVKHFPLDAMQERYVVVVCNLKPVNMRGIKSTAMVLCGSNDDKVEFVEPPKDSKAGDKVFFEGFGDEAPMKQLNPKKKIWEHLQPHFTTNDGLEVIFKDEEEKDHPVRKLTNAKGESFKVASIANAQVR


Tests used:
Trbp111 [1] = target: T2, Trbp111 (Aquifex aeolicus, UniProt O66738 1-111); experiment: competition fluorescence polarization; ITC (Arc1p): 25 mM Tris-HCl pH 7.4, 150 mM NaCl, 2 mM MgCl2, 25 °C. FP and competition FP: 25 mM Tris-HCl pH 7.5, 150 mM NaCl (Arc1p) or 50 mM NaCl (Trbp111), 2 mM MgCl2, room temperature; conditions: protein: recombinant; tags: His-MBP removed (PreScission); chain copies: 2; hairpin
T2 sequence (O66738 entry or part of it): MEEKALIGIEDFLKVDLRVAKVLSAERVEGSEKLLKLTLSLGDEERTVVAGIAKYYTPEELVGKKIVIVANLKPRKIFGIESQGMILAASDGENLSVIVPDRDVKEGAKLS

Arc1p dN [2] = target: T1, Arc1p dN; experiment: as above; conditions: protein: recombinant; tags: His-MBP removed; hairpin
Arc1p dN [3] = target: T1, Arc1p dN; experiment: competition FP; FP: 25 mM Tris-HCl pH 7.5, 2 mM MgCl2, 50 mM NaCl (Trbp111) or 150 mM NaCl (Arc1p), room temperature; ITC: 25 mM Tris-HCl pH 7.4, 150 mM NaCl, 2 mM MgCl2, 25 C; conditions: protein: recombinant; tags: His-MBP removed; hairpin
Trbp111 [4] = target: T2, Trbp111; experiment: competition FP; vs fluorescein-tRNATyr; FP: 25 mM Tris-HCl pH 7.5, 2 mM MgCl2, 50 mM NaCl (Trbp111) or 150 mM NaCl (Arc1p), room temperature; ITC: 25 mM Tris-HCl pH 7.4, 150 mM NaCl, 2 mM MgCl2, 25 C; conditions: protein: recombinant; tags: His-MBP removed (PreScission); chain copies: 2; hairpin
Arc1p dN [5] = target: T1, Arc1p dN; experiment: competition FP; FP: 25 mM Tris-HCl pH 7.5, 2 mM MgCl2, 50 mM NaCl (Trbp111) or 150 mM NaCl (Arc1p), room temperature; ITC: 25 mM Tris-HCl pH 7.4, 150 mM NaCl, 2 mM MgCl2, 25 C; conditions: protein: recombinant; tags: His-MBP removed; hairpin; remark: listed apart in the source
Trbp111 [6] = target: T2, Trbp111; experiment: 2AP fluorescence lifetime; 60 uM protein: 4.73 to 5.76 ns; FP: 25 mM Tris-HCl pH 7.5, 2 mM MgCl2, 50 mM NaCl (Trbp111) or 150 mM NaCl (Arc1p), room temperature; ITC: 25 mM Tris-HCl pH 7.4, 150 mM NaCl, 2 mM MgCl2, 25 C; conditions: protein: recombinant; tags: His-MBP removed (PreScission); chain copies: 2; label: 2AP; hairpin
Arc1p dN [7] = target: T1, Arc1p dN; experiment: 2AP fluorescence lifetime; 20 uM protein: 4.76 to 6.2 ns; FP: 25 mM Tris-HCl pH 7.5, 2 mM MgCl2, 50 mM NaCl (Trbp111) or 150 mM NaCl (Arc1p), room temperature; ITC: 25 mM Tris-HCl pH 7.4, 150 mM NaCl, 2 mM MgCl2, 25 C; conditions: protein: recombinant; tags: His-MBP removed; label: 2AP; hairpin
Arc1p dN [8] = target: T1, Arc1p dN; experiment: 2AP fluorescence lifetime; 20 uM protein: 5.46 to 6.26 ns; FP: 25 mM Tris-HCl pH 7.5, 2 mM MgCl2, 50 mM NaCl (Trbp111) or 150 mM NaCl (Arc1p), room temperature; ITC: 25 mM Tris-HCl pH 7.4, 150 mM NaCl, 2 mM MgCl2, 25 C; conditions: protein: recombinant; tags: His-MBP removed; label: 2AP; hairpin
Trbp111 [9] = target: T2, Trbp111; experiment: competition FP; FP: 25 mM Tris-HCl pH 7.5, 2 mM MgCl2, 50 mM NaCl (Trbp111) or 150 mM NaCl (Arc1p), room temperature; ITC: 25 mM Tris-HCl pH 7.4, 150 mM NaCl, 2 mM MgCl2, 25 C; conditions: protein: recombinant; tags: His-MBP removed (PreScission); chain copies: 2; hairpin

Binder | IC50 (Trbp111 [1]) | IC50 (Arc1p dN [2]) | binding signal (Arc1p dN [5]) | also measured
AGGCUUGGGUGGUUCAAGUCCACUCAGGCCUACCA (structured_RNA) [MiniH] | 5.96 ± 1.02 µM | 3.69 ± 0.931 µM | – | binding signal (Arc1p dN [3]): ~10 fold weaker than tRNA; IC50 (Trbp111 [4]): 6.5 ± 1 µM
AGGCUUGGGUGGUUCAAGUCCACUCAGGCCUACCG (structured_RNA) [MiniH-ACCG] | – | 7.58 ± 2.9 µM | ~2 fold weaker than MiniH | –
AGGCUUGGGUGGUUCAAGUCCACUCAGGCCUACCC (structured_RNA) [MiniH-ACCC] | – | 13.2 ± 4.95 µM | ~3 fold weaker than MiniH | –
AGGCUUGGGUGGUUCAAGUCCACUCAGGCCUACCU (structured_RNA) [MiniH-ACCU] | – | 11.8 ± 2.67 µM | ~3 fold weaker than MiniH | –
AGGCUUGGGUGGUUCAAGUCCACUCAGGCCUACAA (structured_RNA, 2-aminopurine at position 75) [MiniH-AC-2AP-A] | – | – | – | binding result (Trbp111 [6]): binds; binding result (Arc1p dN [7]): binds
AGGCUUGGGUGGUUCAAGUCCACUCAGGCCUACCA (structured_RNA, 2-aminopurine at position 76) [MiniH-ACC-2AP] | – | – | – | binding result (Arc1p dN [8]): binds
AGGCUUGGGUGGUUCAAGUCCACUCAGGCCUCA (structured_RNA) [MiniH dA73/dC74] | 2.17 ± 0.151 µM | 2.78 ± 0.339 µM | – | binding signal (Trbp111 [9]): ~3 fold higher affinity than MiniH
AGGCUUUUCAAGUAGGCCUACCA (structured_RNA) [MicroH] | 7.32 ± 0.991 µM | 4.66 ± 0.769 µM | – | binding signal (Arc1p dN [3]): ~10 fold weaker than tRNA; IC50 (Trbp111 [4]): 7.2 ± 1 µM
